Reference: patent US20050148532A1

Molecular target: histidine tagged p85 with serine 83 mutated to alanine (p85^S83A) (UniProt P27986)
Assay: cell-based or functional assay

Chain of HA-14-3-3 zeta (hemagglutinin-tagged 14-3-3 zeta) (P63103 whole entry): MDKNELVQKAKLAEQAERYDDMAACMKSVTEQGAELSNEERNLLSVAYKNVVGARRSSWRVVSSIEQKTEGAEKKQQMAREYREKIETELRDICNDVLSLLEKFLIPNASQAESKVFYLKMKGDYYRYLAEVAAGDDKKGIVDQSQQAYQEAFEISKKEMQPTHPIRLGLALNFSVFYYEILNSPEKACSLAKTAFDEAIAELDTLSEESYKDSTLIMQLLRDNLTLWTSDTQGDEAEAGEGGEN

Question: Which decrease in activation of PI3K (production of PIP3 in PY20 immunoprecipitates) does the source give for “HA-14-3-3 zeta (hemagglutinin-tagged 14-3-3 zeta) (from UniProt P63103 1-245)” here?
Answer: 35%
